Measured values taken from US20020055130A1, “Method and product for regulating apoptosis” (National Jewish Center for Immunology and Respiratory …, priority 1997, published 2002).

Target: JNK kinase/SEK-1 (endogenous, Swiss 3T3 cells) (UniProt P47809)
Assay: cell-based or functional assay

JNK kinase/SEK-1 (endogenous, Swiss 3T3 cells), sequence (P47809 2-397 limits assumed): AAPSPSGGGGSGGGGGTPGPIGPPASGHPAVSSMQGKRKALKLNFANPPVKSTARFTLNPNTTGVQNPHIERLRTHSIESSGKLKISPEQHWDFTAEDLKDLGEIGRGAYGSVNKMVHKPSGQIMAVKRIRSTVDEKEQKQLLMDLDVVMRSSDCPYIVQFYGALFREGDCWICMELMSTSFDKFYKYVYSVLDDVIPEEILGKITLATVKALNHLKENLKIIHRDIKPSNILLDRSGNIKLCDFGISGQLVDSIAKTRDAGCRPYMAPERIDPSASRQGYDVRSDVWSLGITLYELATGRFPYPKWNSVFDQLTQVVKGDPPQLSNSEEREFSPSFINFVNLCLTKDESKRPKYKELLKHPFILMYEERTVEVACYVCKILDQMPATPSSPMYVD

**Q.** “competitive inhibitory JNK/SAPK mutant JNK/SAPK(APF)” was tested. Which inhibition of Gal4/Jun activation in response to MEKKCOOH (luciferase reporter, transient transfection) did it give?
**A.** The inhibition of Gal4/Jun activation in response to MEKKCOOH (luciferase reporter, transient transfection) was 65%.
